From publication PMC6990103 (Journal of molecular biology, 2019)

What was measured:
[1] = molecular target: T1, nluc-NP612 fusion protein, RESTV (Reston ebolavirus, Reston 1989 (isolate …, UniProt Q8JPY1)); assay: far-Western, overlay or dot blot; conditions: both partners purified
T1 construct: also called RESTV NP612 C-terminus; source: E. coli BL21(DE3)+pRARE, cytosolic, purified (IMAC, SEC)

[2] = molecular target: T2, nluc-NP612 fusion protein, SUDV (Sudan ebolavirus, Boniface 1976 …, UniProt Q9QP77); assay: far-Western, overlay or dot blot; conditions: both partners purified
T2 construct: also called SUDV NP612 C-terminus; source: E. coli BL21(DE3)+pRARE, cytosolic, purified (IMAC, SEC)

[3] = molecular target: T3, nluc-NP612 fusion protein, TAFV (Tai Forest ebolavirus, IC1 1994, UniProt B8XCN6); assay: far-Western, overlay or dot blot; conditions: both partners purified
T3 construct: also called TAFV C-terminus; source: E. coli BL21(DE3)+pRARE, cytosolic, purified (IMAC, SEC)

recombinant BDBV 2007 NP [4] = molecular target: T4, recombinant BDBV 2007 NP (Bundibugyo ebolavirus (BDBV)., UniProt B8XCM7); assay: far-Western, overlay or dot blot; conditions: both partners purified
T4 construct: also called BDBV NP

[5] = molecular target: T5, recombinant TAFV IC1 1994 NP (Tai Forest ebolavirus (TAFV)., UniProt B8XCN6); assay: far-Western, overlay or dot blot; conditions: both partners purified
T5 construct: also called TAFV NP

[6] = molecular target: T6, recombinant SUDV Boniface 1976 NP (Sudan ebolavirus, Boniface 1976, UniProt Q9QP77); assay: far-Western, overlay or dot blot; conditions: both partners purified
T6 construct: also called SUDV NP; full-length NP polymers

[7] = molecular target: T7, nluc-NP612 fusion protein, BDBV (Bundibugyo ebolavirus, Uganda 2007, UniProt B8XCM7); assay: far-Western, overlay or dot blot; conditions: both partners purified
T7 construct: also called BDBV NP612 C-terminus; source: E. coli BL21(DE3)+pRARE, cytosolic, purified (IMAC, SEC)

[8] = molecular target: T1, nluc-NP612 fusion protein, RESTV; assay: ELISA; conditions: both partners purified
[9] = molecular target: T2, nluc-NP612 fusion protein, SUDV; assay: ELISA; conditions: both partners purified
[10] = molecular target: T3, nluc-NP612 fusion protein, TAFV; assay: ELISA; conditions: both partners purified
recombinant BDBV 2007 NP [11] = molecular target: T4, recombinant BDBV 2007 NP; assay: ELISA; conditions: both partners purified
[12] = molecular target: T5, recombinant TAFV IC1 1994 NP; assay: ELISA; conditions: both partners purified
[13] = molecular target: T8, NP of SUDV Boniface 1976 in live virus preparation (Sudan ebolavirus, Boniface 1976, UniProt Q9QP77); assay: ELISA; conditions: one partner purified
T8 construct: also called SUDV (virus)

[14] = molecular target: T9, NP of TAFV IC1 1994 in live virus preparation (Tai Forest ebolavirus (TAFV)., UniProt B8XCN6); assay: ELISA; conditions: one partner purified
T9 construct: also called TAFV (virus)

[15] = molecular target: T6, recombinant SUDV Boniface 1976 NP; assay: ELISA; conditions: both partners purified
[16] = molecular target: T7, nluc-NP612 fusion protein, BDBV; assay: ELISA; conditions: both partners purified

Measured: binding result

B1: sdAb ZE alkaline phosphatase fusion (VHH)
VHH: QVQLQESGGGLVQPGGSLRLSCTASGFTLAEYGVGWFRQAPGKERELVALIAVGGTTHSIDSVKGRFTISRDNMKNTVYLQMNSLNVEDTAVYYCNAYSSAYDRNYWGQGTQVTVSS
notes: also called sdAb-AP fusion of ZE; source: previously generated [9], stored at -80 °C
binds: [1] | [2] | [3] | recombinant BDBV 2007 NP [4] | [5] | [6] | [7]

B2: sdAb ZE, biotinylated (from pecan126) (VHH)
VHH: B1 VHH
notes: also called anti-Ebola virus sdAb; oriented sdAb captor; source: E. coli HBV88, pecan126 preparations
binds: [8] | [9] | [10] | recombinant BDBV 2007 NP [11] | [12] | [13] | [14] | [15] | [16]
